# Laboratory results published in patent publication US7727972B2, “Methods for determining absorption of cobalamin or analogues thereof” (DrugTech Corporation, priority 2004, dated 2010).
# T1: TC-bound 57Co cobalamin (cyanocobalamin-transcobalamin complex) (Homo sapiens, UniProt P20062)
# T1 construct: from tissue; host or cells: human donor serum
# T1 sequence (P20062 19-427): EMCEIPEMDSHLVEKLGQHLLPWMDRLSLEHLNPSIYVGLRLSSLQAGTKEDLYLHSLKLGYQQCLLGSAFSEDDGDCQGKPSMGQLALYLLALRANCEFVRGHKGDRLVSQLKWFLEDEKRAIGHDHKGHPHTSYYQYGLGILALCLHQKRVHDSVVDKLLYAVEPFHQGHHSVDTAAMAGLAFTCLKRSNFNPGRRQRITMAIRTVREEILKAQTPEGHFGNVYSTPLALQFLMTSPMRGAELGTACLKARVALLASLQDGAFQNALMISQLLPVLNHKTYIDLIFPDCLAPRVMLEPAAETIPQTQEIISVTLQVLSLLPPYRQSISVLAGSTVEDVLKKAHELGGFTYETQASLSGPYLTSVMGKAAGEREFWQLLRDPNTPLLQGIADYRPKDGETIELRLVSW
# Tests used:
# [1] = target: T1, TC-bound 57Co cobalamin (cyanocobalamin-transcobalamin complex); test: Release of 57Co cyanocobalamin from transcobalamin using proteases; type: biochemical; conditions: 50 U protease, human donor serum, TC captured on antibody-coated magnetic microspheres; 15 min (chymotrypsin 45 min); FIG. 1
# Description: 25 μl tracer solution and 2.5 μl cyanocobalamin solution were added to 400 μl human donor serum. Tris-HCl 0.1 M pH 7.4 was run as a control. After addition of 50 μl capturing reagent, the samples were incubated on a coulter mixer for 1 hour at room temperature. The samples were placed in a magnetic rack for 3 minutes for separation of the capturing reagent. Subsequently, the rack was inverted and incubated for another 3 minutes. The supernatant was discarded and 500 μl of washing buffer was added. The samples were vortexed and placed in the magnetic rack for 3 minutes. Subsequently, the rack was inverted again and the samples were incubated for another 3 minutes. After separation, the washing buffer was discarded and 50 U of subtilisin Carlsberg, in 200 μl Tris-HCl 0.1 M pH 7.4 5 mM Ca^2+, was added. After incubation for 15 minutes at 50° C. in a shaking water bath, the samples were put on a magnetic rack for 3 minutes for separation of the capturing reagent. The rack was inverted and incubated for another 3 minutes. The supernatant was discarded and the pellet was counted for 5 minutes on a gamma counter.
# Similar experiments were performed with proteinase K (50 U) in Tris-HCl 0.1 M pH 7.4 5 mM Ca^2+ incubated at 37° C., thermolysin (50 U) in Tris-HCl 0.1 M pH 7.4 5 mM Ca^2+ 5 mM Zn^2+, and chymotrypsin (50 U) in Tris-HCl 0.1 M pH 7.4 incubated for 45 min. at 37° C. […]
# [2] = tested on: Anti haptocorrin antibodies (ELISA); test: Cross-reactivity of the haptocorrin ELISA towards other cobalamin binding proteins; design: species or system rabbit; conditions: 100 nmol/L in the assay mixture
# Description: Antibodies. Anti haptocorrin was produced by DakoCytomation A/S, Denmark by immunising rabbits with 200 μg pure haptocorrin produced as previously described (12) and deglycosylated as described above. The gamma globulin fraction was pre-pared (13) from serum obtained after 7 immunisations.
# ELISA. The principle of the ELISA assay used was an immobilised capture antibody (0.1 ug gamma globulin/well, rabbit nr F7773) catching the analyte and a biotinylated detection antibody (gamma globulin 3 ug/L, rabbit nr 7772) visualised by avidin/Horse Radish Peroxidase (HRP). Colour development by addition of 3,3′,5,5′-tetramethyl-benzidin was proportional to the concentration of analyte. The assay procedure was as previously described for transcobalamin (14, 15). In brief, calibrator, sample or control (100 μL, final dilution 1:30) was incubated for 1 hour at room temperature prior to washing and incubation for 30 min with the biotinylated detection antibody. The attached biotinylated antibody was detected employing avidin/HRP and colour development was determined by measuring the absorbance at 420 nm and correcting for the absorbance at 620 nm. The calibrator employed was deglycosylated pure human haptocorrin. All samples were run in true duplicates, where deglycosylation was performed on two independent samples.
# Samples. […]
release of cyanocobalamin from its complex with transcobalamin (counts remaining in the sample) [1],cross-reactivity in haptocorrin ELISA [2],Molecule
most effective,,"subtilisin Carlsberg: subtilisin Carlsberg from Bacillus licheniformis (EC 3.4.21.62) (Sigma Aldrich) (protein, UniProt P00780 106-379, looked up) Subtilisin Carlsberg: AQTVPYGIPLIKADKVQAQGFKGANVKVAVLDTGIQASHPDLNVVGGASFVAGEAYNTDGNGHGTHVAGTVAALDNTTGVLGVAPSVSLYAVKVLNSSGSGSYSGIVSGIEWATTNGMDVINMSLGGASGSTAMKQAVDNAYAKGVVVVAAAGNSGSSGNTNTIGYPAKYDSVIAVGAVDSNSNRASFSSVGAELEVMAPGAGVYSTYPTNTYATLNGTSMASPHVAGAAALILSKHPNLSASQVRNRLSSTATYLGSSFYYGKGLINVEAAAQ"
,No cross-reactivity,"transcobalamin: cobalamin binding protein; pure TC dissolved in phosphate buffer 0.1 M containing albumin 0.1% (protein, UniProt P20062 19-427, looked up) Transcobalamin-2: EMCEIPEMDSHLVEKLGQHLLPWMDRLSLEHLNPSIYVGLRLSSLQAGTKEDLYLHSLKLGYQQCLLGSAFSEDDGDCQGKPSMGQLALYLLALRANCEFVRGHKGDRLVSQLKWFLEDEKRAIGHDHKGHPHTSYYQYGLGILALCLHQKRVHDSVVDKLLYAVEPFHQGHHSVDTAAMAGLAFTCLKRSNFNPGRRQRITMAIRTVREEILKAQTPEGHFGNVYSTPLALQFLMTSPMRGAELGTACLKARVALLASLQDGAFQNALMISQLLPVLNHKTYIDLIFPDCLAPRVMLEPAAETIPQTQEIISVTLQVLSLLPPYRQSISVLAGSTVEDVLKKAHELGGFTYETQASLSGPYLTSVMGKAAGEREFWQLLRDPNTPLLQGIADYRPKDGETIELRLVSW"
most effective,,"Proteinase K: proteinase K from Tritrachium album (EC 3.4.21.64) (Sigma Aldrich) (protein, UniProt P06873 106-384, looked up) Proteinase K: AAQTNAPWGLARISSTSPGTSTYYYDESAGQGSCVYVIDTGIEASHPEFEGRAQMVKTYYYSSRDGNGHGTHCAGTVGSRTYGVAKKTQLFGVKVLDDNGSGQYSTIIAGMDFVASDKNNRNCPKGVVASLSLGGGYSSSVNSAAARLQSSGVMVAVAAGNNNADARNYSPASEPSVCTVGASDRYDRRSSFSNYGSVLDIFGPGTSILSTWIGGSTRSISGTSMATPHVAGLAAYLMTLGKTTAASACRYIADTANKGDLSNIPFGTVNLLAYNNYQA"
